Experimental data as given in PMC7822592, “The half-life of the bone-derived hormone osteocalcin is regulated through O-glycosylation in mice, but not in humans” (eLife, 2020).
No end group written: not given here. O‑glycan = not defined here

Experiments:
[1] = In vivo half-life assay, serum OCN after intraperitoneal injection in Bglap-/- mice; set-up: species or system mouse; conditions: for serum OCN / Serum OCN at 120 minutes: fed Bglap-/- male mice; for serum OCN / % OCN from initial (relative to maximum at 30 min) / % OCN from initial, mean used for 1/2 life: 40 ng/g i.p.; for serum OCN: ELISA; for % OCN from initial (relative to maximum at 30 min) / % OCN from initial, mean used for 1/2 life: serum, fasted Bglap-/- mice
Procedure: For in vivo half-life assay, Bglap-/- male mice were injected intraperitoneally with 40 or 80 ng/g of body weight of mouse O-glycosylated ucOCN or non-glycosylated ucOCN, serum OCN level was analyzed at indicated time points using total mouse OCN ELISA. In all ex vivo and in vivo studies, mouse or human proteins were prepared in saline solution (0.9% NaCl) containing BSA (35 mg/ml) as a carrier.

INS-1 832/3 cells [2] = experiment: Ins1 gene expression in INS-1 832/3 cells treated with ucOCN; format: cell-based, rat; conditions: 8 hr, qPCR
Procedure: The INS-1 832/3 rat insulinoma cell line (Millipore-Sigma) was cultured in RPMI-1640 with 11.1 mM D-glucose, supplemented with 2 mM L-glutamine, 1 mM sodium pyruvate, 10 mM HEPES, 0.05 mM β-mercaptoethanol and 10% FBS ([Hohmeier et al., 2000]). On day 1, cells were plated at 3 × 10^5 cells per well in 12-well plates and on day 5, cells were washed with PBS and incubated with culture media containing 5 mM D-glucose. Twenty-four hours later, cells were washed with PBS and incubated for 4 hr in culture media containing 1% FBS, 5 mM D-glucose and 0.1% BSA. OCN was added for 8 hr before supernatants and cells were harvested. ucOCN and O-gly ucOCN concentration were measured in supernatants by ELISA and cells were lyzed and RNA extracted as described in the material and methods section. Gene expression was analyzed using rat specific primers for Ins1 and Gapdh.

INS-1 832/3 cells [3] = experiment: OCN stability in INS-1 832/3 cell culture media; format: in vitro ADME, rat; conditions: 8 hours at 4°C without cells, ELISA

O-gly ucOCN: O-glycosylated uncarboxylated mouse osteocalcin produced and purified from HEK293 as Fc fusion, released by thrombin (YLGASVPS(O‑glycan)PDPLEPTREQCELNPACDELSDQYGLKTAYKRIYGITI; ends and bridges not checked; also: O-glycosylated (HexNAc, Hex, NANA); UniProt P86546 50-95, looked up)
serum OCN ([1]; 120 min, mouse 4): 13.3 ng/mL
serum OCN ([1]; 120 min, mouse 5): 10.2 ng/mL
serum OCN ([1]; 120 min, mouse 6): 7.5 ng/mL
serum OCN ([1]; 120 min, mouse 7): 4.4 ng/mL
serum OCN ([1]; 120 min, mouse 8): 8.5 ng/mL
serum OCN ([1]; 120 min, mouse 9): 6.4 ng/mL
serum OCN ([1]; 120 min, mouse 10): 5.9 ng/mL
serum OCN ([1]; 180 min, mouse 1): 1.2 ng/mL
serum OCN ([1]; 180 min, mouse 2): 2.3 ng/mL
serum OCN ([1]; 180 min, mouse 3): 1.0 ng/mL
serum OCN ([1]; 180 min, mouse 4): 2.9 ng/mL
serum OCN ([1]; 180 min, mouse 5): 2.4 ng/mL
serum OCN ([1]; 180 min, mouse 6): 4.2 ng/mL
serum OCN ([1]; 180 min, mouse 7): 3.5 ng/mL
serum OCN ([1]; 180 min, mouse 8): 4.0 ng/mL
serum OCN ([1]; 180 min, mouse 9): 3.7 ng/mL
serum OCN ([1]; 180 min, mouse 10): 3.9 ng/mL
Serum OCN at 120 minutes ([1]; dose 40 ng/g i.p., mouse 1): 9.5 ng/mL
Serum OCN at 120 minutes ([1]; dose 40 ng/g i.p., mouse 2): 4.6 ng/mL
Serum OCN at 120 minutes ([1]; dose 40 ng/g i.p., mouse 3): 13.3 ng/mL
Serum OCN at 120 minutes ([1]; dose 40 ng/g i.p., mouse 4): 10.2 ng/mL
Serum OCN at 120 minutes ([1]; dose 80 ng/g i.p., mouse 1): 11.6 ng/mL
Serum OCN at 120 minutes ([1]; dose 80 ng/g i.p., mouse 2): 22.5 ng/mL
Serum OCN at 120 minutes ([1]; dose 80 ng/g i.p., mouse 3): 25.2 ng/mL
Serum OCN at 120 minutes ([1]; dose 80 ng/g i.p., mouse 4): 14.9 ng/mL
% OCN from initial (relative to maximum at 30 min) ([1]; 30 min, mouse 1): 100.0%
% OCN from initial (relative to maximum at 30 min) ([1]; 30 min, mouse 2): 100.0%
% OCN from initial (relative to maximum at 30 min) ([1]; 30 min, mouse 3): 100.0%
% OCN from initial (relative to maximum at 30 min) ([1]; 30 min, mouse 4): 100.0%
% OCN from initial (relative to maximum at 30 min) ([1]; 30 min, mouse 5): 100.0%
% OCN from initial (relative to maximum at 30 min) ([1]; 60 min, mouse 1): 89.4%
% OCN from initial (relative to maximum at 30 min) ([1]; 60 min, mouse 2): 88.9%
% OCN from initial (relative to maximum at 30 min) ([1]; 60 min, mouse 3): 97.3%
% OCN from initial (relative to maximum at 30 min) ([1]; 60 min, mouse 4): 86.4%
% OCN from initial (relative to maximum at 30 min) ([1]; 60 min, mouse 5): 90.9%
% OCN from initial (relative to maximum at 30 min) ([1]; 90 min, mouse 1): 85.8%
% OCN from initial (relative to maximum at 30 min) ([1]; 90 min, mouse 2): 74.3%
% OCN from initial (relative to maximum at 30 min) ([1]; 90 min, mouse 3): 85.8%
% OCN from initial (relative to maximum at 30 min) ([1]; 90 min, mouse 4): 74.6%
% OCN from initial (relative to maximum at 30 min) ([1]; 90 min, mouse 5): 75.0%
% OCN from initial (relative to maximum at 30 min) ([1]; 120 min, mouse 1): 70.4%
% OCN from initial (relative to maximum at 30 min) ([1]; 120 min, mouse 2): 66.4%
% OCN from initial (relative to maximum at 30 min) ([1]; 120 min, mouse 3): 75.1%
% OCN from initial (relative to maximum at 30 min) ([1]; 120 min, mouse 4): 74.6%
% OCN from initial (relative to maximum at 30 min) ([1]; 120 min, mouse 5): 74.7%
% OCN from initial, mean used for 1/2 life ([1]; time 0 min of declining phase): 100.0%
% OCN from initial, mean used for 1/2 life ([1]; time 30 min of declining phase): 90.6%
% OCN from initial, mean used for 1/2 life ([1]; time 60 min of declining phase): 79.1%
% OCN from initial, mean used for 1/2 life ([1]; time 90 min of declining phase): 72.2%
Ins1 gene expression (Fold change relative to vehicle) (INS-1 832/3 cells [2]; 0.1 ng/mL, replicate 1): 2.4 Fold change
Ins1 gene expression (Fold change relative to vehicle) (INS-1 832/3 cells [2]; 0.1 ng/mL, replicate 2): 1.6 Fold change
Ins1 gene expression (Fold change relative to vehicle) (INS-1 832/3 cells [2]; 0.1 ng/mL, replicate 3): 2.2 Fold change
Ins1 gene expression (Fold change relative to vehicle) (INS-1 832/3 cells [2]; 0.1 ng/mL, replicate 4): 2.6 Fold change
Ins1 gene expression (Fold change relative to vehicle) (INS-1 832/3 cells [2]; 0.1 ng/mL, replicate 5): 3.1 Fold change
Ins1 gene expression (Fold change relative to vehicle) (INS-1 832/3 cells [2]; 0.1 ng/mL, replicate 6): 3.0 Fold change
Ins1 gene expression (Fold change relative to vehicle) (INS-1 832/3 cells [2]; 0.1 ng/mL, replicate 7): 4.2 Fold change
Ins1 gene expression (Fold change relative to vehicle) (INS-1 832/3 cells [2]; 0.1 ng/mL, replicate 8): 2.7 Fold change
Ins1 gene expression (Fold change relative to vehicle) (INS-1 832/3 cells [2]; 0.3 ng/mL, replicate 1): 0.562 Fold change
Ins1 gene expression (Fold change relative to vehicle) (INS-1 832/3 cells [2]; 0.3 ng/mL, replicate 2): 1.1 Fold change
Ins1 gene expression (Fold change relative to vehicle) (INS-1 832/3 cells [2]; 0.3 ng/mL, replicate 3): 1.1 Fold change
Ins1 gene expression (Fold change relative to vehicle) (INS-1 832/3 cells [2]; 0.3 ng/mL, replicate 4): 12.1 Fold change
Ins1 gene expression (Fold change relative to vehicle) (INS-1 832/3 cells [2]; 0.3 ng/mL, replicate 5): 2.0 Fold change
Ins1 gene expression (Fold change relative to vehicle) (INS-1 832/3 cells [2]; 0.3 ng/mL, replicate 6): 8.6 Fold change
Ins1 gene expression (Fold change relative to vehicle) (INS-1 832/3 cells [2]; 0.3 ng/mL, replicate 7): 2.7 Fold change
Ins1 gene expression (Fold change relative to vehicle) (INS-1 832/3 cells [2]; 0.3 ng/mL, replicate 8): 4.9 Fold change
Ins1 gene expression (Fold change relative to vehicle) (INS-1 832/3 cells [2]; 0.3 ng/mL, replicate 9): 2.3 Fold change
Ins1 gene expression (Fold change relative to vehicle) (INS-1 832/3 cells [2]; 0.3 ng/mL, replicate 10): 0.7 Fold change
OCN in stimulation media (INS-1 832/3 cells [3]; replicate 1): 0.15 ng/mL
OCN in stimulation media (INS-1 832/3 cells [3]; replicate 2): 0.15 ng/mL
OCN in stimulation media (INS-1 832/3 cells [3]; replicate 3): 0.14 ng/mL
